Results on 7 molecules are retold here after patent publication US20230395193A1 (priority 2020, published 2023).

This assay relates to SARS-CoV-1, MERS-CoV and SARS-CoV-2 proteins in HEK293T cells. The arrangement: species or system human.

B1: M-Q8WUD6 (protein, UniProt Q8WUD6 2-406, looked up)
Cholinephosphotransferase 1: AAGAGAGSAPRWLRALSEPLSAAQLRRLEEHRYSAAGVSLLEPPLQLYWTWLLQWIPLWMAPNSITLLGLAVNVVTTLVLISYCPTATEEAPYWTYLLCALGLFIYQSLDAIDGKQARRTNSCSPLGELFDHGCDSLSTVFMAVGASIAARLGTYPDWFFFCSFIGMFVFYCAHWQTYVSGMLRFGKVDVTEIQIALVIVFVLSAFGGATMWDYTIPILEIKLKILPVLGFLGGVIFSCSNYFHVILHGGVGKNGSTIAGTSVLSPGLHIGLIIILAIMIYKKSATDVFEKHPCLYILMFGCVFAKVSQKLVVAHMTKSELYLQDTVFLGPGLLFLDQYFNNFIDEYVVLWMAMVISSFDMVIYFSALCLQISRHLHLNIFKTACHQAPEQVQVLSSKSHQNNMD
In the case of B1, the MIST_MERS was 0, the MIST_SARS1 came out at 0.8979, the MIST_SARS2 amounted to 0.636 and the Saint_MERS stood at 0. The molecule also came in with a Saint_SARS1 of 0.98 and a Saint_SARS2 of 0.65.

B2: M-Q96AA3 (protein, UniProt Q96AA3 1-541, looked up)
Man(5)GlcNAc(2)-PP-dolichol …: MGSQEVLGHAARLASSGLLLQVLFRLITFVLNAFILRFLSKEIVGVVNVRLTLLYSTTLFLAREAFRRACLSGGTQRDWSQTLNLLWLTVPLGVFWSLFLGWIWLQLLEVPDPNVVPHYATGVVLFGLSAVVELLGEPFWVLAQAHMFVKLKVIAESLSVILKSVLTAFLVLWLPHWGLYIFSLAQLFYTTVLVLCYVIYFTKLLGSPESTKLQTLPVSRITDLLPNITRNGAFINWKEAKLTWSFFKQSFLKQILTEGERYVMTFLNVLNFGDQGVYDIVNNLGSLVARLIFQPIEESFYIFFAKVLERGKDATLQKQEDVAVAAAVLESLLKLALLAGLTITVFGFAYSQLALDIYGGTMLSSGSGPVLLRSYCLYVLLLAINGVTECFTFAAMSKEEVDRYNFVMLALSSSFLVLSYLLTRWCGSVGFILANCFNMGIRITQSLCFIHRYYRRSPHRPLAGLHLSPVLLGTFALSGGVTAVSEVFLCCEQGWPARLAHIAVGAFCLGATLGTAFLTETKLIHFLRTQLGVPRRTDKMT
modifications: interaction partner of viral M protein
B2 displayed an MIST_MERS of 0, an MIST_SARS1 of 0.809, an MIST_SARS2 of 0.5513 and a Saint_MERS of 0. In addition, the Saint_SARS1 was determined as 0.95 and the Saint_SARS2 was found to be 0.98.

B3: M-Q96HR9 (protein, UniProt Q96HR9 1-211, looked up)
Receptor expression-enhancing …: MDGLRQRVEHFLEQRNLVTEVLGALEAKTGVEKRYLAAGAVTLLSLYLLFGYGASLLCNLIGFVYPAYASIKAIESPSKDDDTVWLTYWVVYALFGLAEFFSDLLLSWFPFYYVGKCAFLLFCMAPRPWNGALMLYQRVVRPLFLRHHGAVDRIMNDLSGRALDAAAGITRNVLQVLARSRAGITPVAVAGPSTPLEADLKPSQTPQPKDK
For the molecule B3, the MIST_MERS was found to be 0, the MIST_SARS1 came out at 0, the MIST_SARS2 is 0.9557 and the Saint_MERS is recorded as 0. The same molecule yielded a Saint_SARS1 of 0 and a Saint_SARS2 of 0.65.

B4: M-Q8TBF5 (protein, UniProt Q8TBF5 22-258, looked up)
GPI …: LTRGPAAAFTAARSDAGIRAMCSEIILRQEVLKDGFHRDLLIKVKFGESIEDLHTCRLLIKQDIPAGLYVDPYELASLRERNITEAVMVSENFDIEAPNYLSKESEVLIYARRDSQCIDCFQAFLPVHCRYHRPHSEDGEASIVVNNPDLLMFCDQEFPILKCWAHSEVAAPCALENEDICQWNKMKYKSVYKNVILQVPVGLTVHTSLVCSVTLLITILCSTLILVAVFKYGHFSL
modifications: prey of SARS-CoV-2 M
The molecule B4 yielded an MIST_MERS of 0, an MIST_SARS1 of 0.9901, an MIST_SARS2 of 0.4273 and a Saint_MERS of 0. Besides, the Saint_SARS1 was 0.99 and the Saint_SARS2 was found to be 0.33.

B5: M-Q8NEW0 (protein, UniProt Q8NEW0 1-376, looked up)
Zinc transporter 7: MLPLSIKDDEYKPPKFNLFGKISGWFRSILSDKTSRNLFFFLCLNLSFAFVELLYGIWSNCLGLISDSFHMFFDSTAILAGLAASVISKWRDNDAFSYGYVRAEVLAGFVNGLFLIFTAFFIFSEGVERALAPPDVHHERLLLVSILGFVVNLIGIFVFKHGGHGHSHGSGHGHSHSLFNGALDQAHGHVDHCHSHEVKHGAAHSHDHAHGHGHFHSHDGPSLKETTGPSRQILQGVFLHILADTLGSIGVIASAIMMQNFGLMIADPICSILIAILIVVSVIPLLRESVGILMQRTPPLLENSLPQCYQRVQQLQGVYSLQEQHFWTLCSDVYVGTLKLIVAPDADARWILSQTHNIFTQAGVRQLYVQIDFAAM
modifications: interaction partner of viral M protein
For B5, the MIST_MERS was found to be 0.5834, the MIST_SARS1 is given as 0.6222, the MIST_SARS2 came to 0.767 and the Saint_MERS amounted to 0.64. The molecule further registered a Saint_SARS1 of 0.97 and a Saint_SARS2 of 1.

B6: M-Q96ER3 (protein, UniProt Q96ER3 1-474, looked up)
Protein SAAL1: MDRNPSPPPPGRDKEEEEEVAGGDCIGSTVYSKHWLFGVLSGLIQIVSPENTKSSSDDEEQLTELDEEMENEICRVWDMSMDEDVALFLQEFNAPDIFMGVLAKSKCPRLREICVGILGNMACFQEICVSISSDKNLGQVLLHCLYDSDPPTLLETSRLLLTCLSQAEVASVWVERIQEHPAIYDSICFIMSSSTNVDLLVKVGEVVDKLFDLDEKLMLEWVRNGAAQPLDQPQEESEEQPVFRLVPCILEAAKQVRSENPEWLDVYMHILQLLTTVDDGIQAIVHCPDTGKDIWNLLFDLVCHEFCQSDDPPIILQEQKTVLASVFSVLSAIYASQTEQEYLKIEKVDLPLIDSLIRVLQNMEQCQKKPENSAESNTEETKRTDLTQDDFHLKILKDILCEFLSNIFQALTKETVAQGVKEGQLSKQKCSSAFQNLLPFYSPVVEDFIKILREVDKALADDLEKNFPSLKVQT
modifications: host interactor of M
With B6, the MIST_MERS was found to be 0, the MIST_SARS1 is given as 0.3763, the MIST_SARS2 was 0.7695 and the Saint_MERS turned out to be 0. The molecule also had a Saint_SARS1 of 0.98 and a Saint_SARS2 of 1.

B7: M-Q8TCJ2 (protein, UniProt Q8TCJ2 2-826, looked up)
Dolichyl-diphosphooligosacchar …: AEPSAPESKHKSSLNSSPWSGLMALGNSRHGHHGPGAQCAHKAAGGAAPPKPAPAGLSGGLSQPAGWQSLLSFTILFLAWLAGFSSRLFAVIRFESIIHEFDPWFNYRSTHHLASHGFYEFLNWFDERAWYPLGRIVGGTVYPGLMITAGLIHWILNTLNITVHIRDVCVFLAPTFSGLTSISTFLLTRELWNQGAGLLAACFIAIVPGYISRSVAGSFDNEGIAIFALQFTYYLWVKSVKTGSVFWTMCCCLSYFYMVSAWGGYVFIINLIPLHVFVLLLMQRYSKRVYIAYSTFYIVGLILSMQIPFVGFQPIRTSEHMAAAGVFALLQAYAFLQYLRDRLTKQEFQTLFFLGVSLAAGAVFLSVIYLTYTGYIAPWSGRFYSLWDTGYAKIHIPIIASVSEHQPTTWVSFFFDLHILVCTFPAGLWFCIKNINDERVFVALYAISAVYFAGVMVRLMLTLTPVVCMLSAIAFSNVFEHYLGDDMKRENPPVEDSSDEDDKRNQGNLYDKAGKVRKHATEQEKTEEGLGPNIKSIVTMLMLMLLMMFAVHCTWVTSNAYSSPSVVLASYNHDGTRNILDDFREAYFWLRQNTDEHARVMSWWDYGYQIAGMANRTTLVDNNTWNNSHIALVGKAMSSNETAAYKIMRTLDVDYVLVIFGGVIGYSGDDINKFLWMVRIAEGEHPKDIRESDYFTPQGEFRVDKAGSPTLLNCLMYKMSYYRFGEMQLDFRTPPGFDRTRNAEIGNKDIKFKHLEEAFTSEHWLVRIYKVKAPDNRETLDHKPRVTNIFPKQKYLSKKTTKRKRGYIKNKLVFKKGKKISKKTV
As for B7, the MIST_MERS turned out to be 0, the MIST_SARS1 was found to be 0.991, the MIST_SARS2 is 0.01779 and the Saint_MERS stood at 0. Moreover, the Saint_SARS1 came to 1 and the Saint_SARS2 worked out at 0.
